The results in this text go back to PMC12356879 (Nature Communications, 2025).

Usually stoichiometry N stands for a count of units in the complex or per binding partner.

Data set [1] addresses post-translational lamin construct with a single N-terminal cysteine (pJS81) (human) (UniProt P02545). Put plainly: SEC.
The data set “optical tweezers” deals with the molecule itself. Description: optical tweezers.

On to “post-translational lamin construct with a single N-terminal cysteine (pJS81) (from UniProt P02545 31-311) (domain or fragment)”, for which the stoichiometry N in data set [1] was found to be 2.

B1: LMNA_(31-311) ribosome-bound nascent chain (domain or fragment)
chain: EKEDLQELNDRLAVYIDRVRSLETENAGLRLRITESEEVVSREVSGIKAAYEAELGDARKTLDSVAKERARLQLELSKVREEFKELKARNTKKEGDLIAAQARLKDLEALLNSKEAALSTALSEKRTLEGELHDLRGQVAKLEAALGEAKKQLQDEMLRRVDAENRLQTMKEELDFQKNIYSEELRETKRRHETRLVEIDNGKQREFESRLADALQELRAQHEDQVEQYKKELEKTYSAKLDNARQSAERNSNLVGAAHEELQQSRIRIDSLSAQLSQLQK
Regarding B1, the mean rupture force in “optical tweezers” was determined as 14 pN.

B2: LMNA_(31-123) ribosome-bound nascent chain (domain or fragment)
chain: EKEDLQELNDRLAVYIDRVRSLETENAGLRLRITESEEVVSREVSGIKAAYEAELGDARKTLDSVAKERARLQLELSKVREEFKELKARNTKK
As for B2, the mean rupture force in “optical tweezers” is 7 pN.
